Target: CherryPicker DmrA chimeric protein
Experiment: cell-based or functional assay

amount of AcGFP-DmrC in microvesicles produced with A/C heterodimerizer (western blot against AcGFP standards): 5 ng/µL | amount of AcGFP-DmrC in microvesicles produced without A/C heterodimerizer (western blot against AcGFP standards): 0.6 ng/µL | packaging efficiency of AcGFP-DmrC into microvesicles, +A/C against -A/C: 8 fold
Substance: AcGFP-DmrC fusion protein

Reference: patent publication US20150315252A1
